Test [1] has as its target T1, mouse Mcl-1 lacking its hydrophobic C-terminus (yeast 2-hybrid bait in pGBT-9) (mouse, UniProt P97287 1-307).
T1 construct: not shown: GAL4 domain of pGBT-9
Put plainly: yeast 2-hybrid screen.

In test [2] the target is mouse dynein light chain 2 (DLC2) (mouse, UniProt Q9D0M5 1-89). Kind of test: yeast 2-hybrid.

We go through three molecules from patent US20050064593A1 (WALTER AND ELIZA HALL INSTITUTE OF MEDICAL RESEARCH, published 2005).

Chain of mouse dynein light chain 2 (DLC2) (Q9D0M5 whole entry): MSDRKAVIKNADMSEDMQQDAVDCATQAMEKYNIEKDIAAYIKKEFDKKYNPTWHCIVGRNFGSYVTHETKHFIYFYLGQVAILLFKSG
T1 sequence (P97287 1-307): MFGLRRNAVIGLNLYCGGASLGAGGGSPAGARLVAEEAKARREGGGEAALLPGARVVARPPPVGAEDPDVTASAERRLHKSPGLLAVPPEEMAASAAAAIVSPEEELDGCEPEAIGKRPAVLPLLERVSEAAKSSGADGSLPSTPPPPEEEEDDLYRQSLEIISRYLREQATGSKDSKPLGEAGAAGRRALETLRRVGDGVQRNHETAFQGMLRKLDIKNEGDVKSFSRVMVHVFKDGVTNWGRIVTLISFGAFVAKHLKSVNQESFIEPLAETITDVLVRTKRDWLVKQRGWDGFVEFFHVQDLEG

B1: Bmf (Bcl-2 modifying factor), mouse, wild-type, as used in the yeast 2-hybrid system (other)
chain: MEPPQCVEELEDDVFQSEDGEPGTQPGGLLSADLFAQSQLDCPLSRLQLFPLTHCCGPGLRPISQEDKATQTLSPASPSQGVMLPCGVTEEPQRLFYGNAGYRLPLPASFPAGSPLGEQPPEGQFLQHRAEVQIARKLQCIADQFHRLHTQQHQQNRDRAWWQVFLFLQNLALNRQENREGVGPW
notes: The clone first isolated with Mcl-1 as bait was a partial one lacking the 5' end; Mouse bmf was later subcloned as bait; also called the novel protein; not shown: GAL4 domain of the yeast 2-hybrid vector (pAD-GAL4-2.1 for the library clone, a pGBT-9 derivative for Bmf as bait); limi
With B1, the binding result in test [1] is recorded as “binds”.

B2: Bmf AAA mutant (D67K68A69:>AAA) as tested in yeast (other)
chain: MEPPQCVEELEDDVFQSEDGEPGTQPGGLLSADLFAQSQLDCPLSRLQLFPLTHCCGPGLRPISQEAAATQTLSPASPSQGVMLPCGVTEEPQRLFYGNAGYRLPLPASFPAGSPLGEQPPEGQFLQHRAEVQIARKLQCIADQFHRLHTQQHQQNRDRAWWQVFLFLQNLALNRQENREGVGPW
notes: Yeast construct of the mutant is not described further; also called AAA mutation; not shown: GAL4 domain of the yeast 2-hybrid vector
As for B2, the binding result in test [2] is on record as “no binding”.

B3: Bmf A69P mutant as tested in yeast (other)
chain: MEPPQCVEELEDDVFQSEDGEPGTQPGGLLSADLFAQSQLDCPLSRLQLFPLTHCCGPGLRPISQEDKPTQTLSPASPSQGVMLPCGVTEEPQRLFYGNAGYRLPLPASFPAGSPLGEQPPEGQFLQHRAEVQIARKLQCIADQFHRLHTQQHQQNRDRAWWQVFLFLQNLALNRQENREGVGPW
notes: Yeast construct of the mutant is not described further; not shown: GAL4 domain of the yeast 2-hybrid vector
In the case of B3, in test [2], the binding result is reported as “no binding”.
